± gives the uncertainty stated by the source.
Assay: protein stability index of a GFP-peptide fusion (yeast GPS) (PSI 1-4); higher = more stable; sorted into four equal gates, so the index is relative within each strain
How it was run: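 Plasmids isolated from each sorting gate were PCR-amplified and Illumina-sequenced, and barcodes assigned the reads to strains. The gates, four of equal size, were set by GFP/Cherry fluorescence ratio on mid-log cultures in leucine-free medium. These cultures were yeast carrying a pooled library of tiled 17-residue yeast protein peptides fused downstream of GFP on a plasmid that also expresses Cherry. The protein stability index is the sum of every gate's read frequency times its gate number.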

Sequence	protein stability index (doa10∆)	protein stability index (pdr5∆)	protein stability index (san1∆)	protein stability index (ubr1∆)
HIVYSLLVNPDIDLETY [YML103C/NUP188]	2.52 ± 0.049	2.34 ± 0.042	2.52 ± 0.062	2.45 ± 0.035
HKQVYPLRMETIPILES [DSN1]	1.73 ± 0.049	2.37 ± 0.05	2.24 ± 0.066	2.14 ± 0.038
HLLIKIIRQLSELNEGN [SRB8]	2.8 ± 0.097	2.77 ± 0.089	3.18 ± 0.052	1.97 ± 0.053
HLLPRNEWIKAQEDVPY [QCR7]	2.31 ± 0.072	1.68 ± 0.086	2.17 ± 0.089	1.88 ± 0.046
HLLVKQGDGLLTKLQKY [RPN7]	2.97 ± 0.13	2.44 ± 0.1	3.19 ± 0.12	3 ± 0.16
HLLYPPHIIAVACLFIT [SSN8]	1.26 ± 0.053	1.27 ± 0.038	1.32 ± 0.1	1.34 ± 0.052
HLNHYILLRYHHNDISN [YCG1]	1.23 ± 0.088	1.17 ± 0.068	1.19 ± 0.15	1.33 ± 0.063
HLSTYLKVYKVGDIVDI [RPL21A]	1.22 ± 0.075	1.49 ± 0.061	1.24 ± 0.16	1.16 ± 0.065
HLVELLLVFRNADLDLD [YDL116W/NUP84]	3.17 ± 0.12	2.46 ± 0.098	2.17 ± 0.099	2.5 ± 0.13
HLVSNELEQLSSEALEA [RPL10]	1.21 ± 0.053	1.39 ± 0.042	1.3 ± 0.14	1.39 ± 0.031
HMMKRWGYQMVWAPTQK [POP1]	2.15 ± 0.054	2.4 ± 0.051	2.59 ± 0.059	2.56 ± 0.054
HNAKNGTLDKNSQTVSG [SNF2]	1.98 ± 0.13	2.42 ± 0.2	2.37 ± 0.2	2.96 ± 0.16
HNGREGSIEEPELNVSL [MCD1]	3.31 ± 0.3	3.5 ± 0.15	3.07 ± 0.12	3.37 ± 0.071
HPIMETIVNDSNYDWLF [RPN9]	2.42 ± 0.058	2.34 ± 0.057	2.16 ± 0.085	2.66 ± 0.052
HPYLFEGAEPGPPYTTD [ISW2]	3.04 ± 0.06	3.14 ± 0.066	3.07 ± 0.05	3.18 ± 0.053
HQHIGKASTISRGAVSG [RPL2A]	2.55 ± 0.043	2.39 ± 0.059	2.83 ± 0.055	3.12 ± 0.05
HQPITSEQKMKEDADLK [SIR4]	2.88 ± 0.058	3.36 ± 0.1	3.42 ± 0.063	3.26 ± 0.073
HQSLGPDGLGEVGMKVQ [RET1]	2.7 ± 0.16	–	–	–
HRQEIFKDSPMDLFMST [GAL11]	2.85 ± 0.089	2.98 ± 0.059	3.23 ± 0.073	2.87 ± 0.076
HSDRYHRVAENWRKQKG [RPL32]	–	2.99 ± 0.2	–	2.6 ± 0.23
HSFIKMLQMKGKLLRNY [SIR2]	2.19 ± 0.09	2.4 ± 0.12	2.27 ± 0.16	2.15 ± 0.067
HTSSGSVSFKVFLLLQA [BRR2]	1.79 ± 0.042	1.84 ± 0.044	1.5 ± 0.074	1.62 ± 0.056
HVLRGVESPDKNVRFRV [YCG1]	–	3.68 ± 0.2	3.16 ± 0.15	–
HVRCGTAFALGIACAGK [RPN2]	1.27 ± 0.081	1.58 ± 0.13	1.46 ± 0.23	1.53 ± 0.076
HVRKVKLLKQPKFDVGA [RPS1A]	2.21 ± 0.062	2.5 ± 0.085	2.28 ± 0.073	2.2 ± 0.067
HVSHEAMREVNDEKRVK [YIL149C/MLP2]	2.74 ± 0.097	2.89 ± 0.15	–	3.03 ± 0.12

Sequence	protein stability index (doa10∆)	protein stability index (pdr5∆)	protein stability index (san1∆)	protein stability index (ubr1∆)
HWSVSFQAHEITSFLLS [NAS6]	2.28 ± 0.056	1.92 ± 0.051	1.76 ± 0.08	2.02 ± 0.04
HYKQQIAVLIELLEERF [YCS4]	2.01 ± 0.07	2.12 ± 0.065	2.48 ± 0.1	2.34 ± 0.072
HYKVPTDTSTTATAATN [MED6]	2.28 ± 0.054	2.62 ± 0.053	2.29 ± 0.067	2.61 ± 0.044
IADLASLEQLLGMMYEQ [YCS4]	3.18 ± 0.1	2.6 ± 0.067	2.6 ± 0.074	2.65 ± 0.031
IAEIKKTPLLKQYLSAS [RPL6A]	2.65 ± 0.063	2.47 ± 0.065	2.31 ± 0.065	2.25 ± 0.047
IAFLVGLVNPKTVQSMT [SWI3]	2.46 ± 0.068	2.02 ± 0.059	2.11 ± 0.07	2.56 ± 0.041
IANDNVITPHFITNVQS [SWI1]	2.14 ± 0.082	2.68 ± 0.076	2.41 ± 0.092	2.2 ± 0.053
IANFSRAGKYELVKSYS [YJR042W/NUP85]	2.25 ± 0.094	2.09 ± 0.074	1.28 ± 0.13	1.45 ± 0.06
IASKMSLAPEADLDSLI [RPT3]	2.62 ± 0.1	2.81 ± 0.13	2.1 ± 0.12	3.07 ± 0.19
ICSCVNRGVKLEIVYGY [RPP1]	2.38 ± 0.1	2.63 ± 0.063	2.43 ± 0.08	2 ± 0.049
IDALGTEFSKNDLEVGV [SCL1]	2.67 ± 0.097	2.46 ± 0.11	2.49 ± 0.11	2.65 ± 0.08
IDDFTTRLWGSVYYHKG [SNU114]	3.06 ± 0.24	3.41 ± 0.17	–	3.31 ± 0.13
IDDKGVLMERKDERGEG [ITC1]	3 ± 0.21	3.5 ± 0.18	3 ± 0.15	3.02 ± 0.21
IDDLIHEIITVGPHFKQ [RPL7A]	1.87 ± 0.1	2.32 ± 0.11	–	1.56 ± 0.064
IDEVDSIATKRFDAQTG [RPT3]	3.12 ± 0.12	3.18 ± 0.076	2.93 ± 0.075	3.38 ± 0.1
IDGPKAGVPRQAINLGQ [RPL14A]	3.58 ± 0.14	3.29 ± 0.11	2.69 ± 0.11	3.31 ± 0.1
IDGSTSHEERIEAIDEY [ISW2]	3.26 ± 0.079	3.26 ± 0.11	3.06 ± 0.091	3.32 ± 0.047
IDMESDVEDDDKETQLK [POP7]	1.67 ± 0.054	1.92 ± 0.048	1.62 ± 0.088	1.98 ± 0.031
IDNGTGRTGNGNMGITT [MED6]	2.92 ± 0.12	2.98 ± 0.061	3.25 ± 0.067	3.31 ± 0.043
IDNLESYAGISTDKLVQ [SIR2]	2.9 ± 0.057	2.93 ± 0.09	2.94 ± 0.068	3.08 ± 0.044
IDSPELLSLISTTAALQ [RPN7]	2.23 ± 0.04	2.65 ± 0.041	2.32 ± 0.041	2.45 ± 0.032
IDTDLFGAPNNPNSTAI [YGL172W/NUP49]	2.8 ± 0.075	2.78 ± 0.063	2.91 ± 0.053	2.59 ± 0.053
IDTLLYLMTYPQQPMVK [RET1]	1.52 ± 0.097	2.09 ± 0.12	2.33 ± 0.13	1.53 ± 0.056
IDVLLEQTTGGNNKDLK [RPB4]	–	3.68 ± 0.27	–	3.5 ± 0.079
IDYHKTAKETKMLMNLH [RPN11]	2.5 ± 0.061	2.45 ± 0.06	2.84 ± 0.057	2.58 ± 0.055
